Where two headings read alike, the source gives them in different places.
Experiments:
RBD Delta (L452R/T478K) [1] = biological target: T1, RBD Delta (L452R/T478K) (SARS-CoV-2, UniProt P0DTC2 319-541); assay: SPR, antigen on CM5 sensor
T1 construct: domain: RBD

[2] = biological target: T2, RBD Omicron (G339D, S371L, S373P, S375F, K417N, N440K, G446S, S477N, T478K, E484A, Q493R, G496S, Q49 (SARS-CoV-2, UniProt P0DTC2 319-541)); assay: SPR, antigen on CM5 sensor
T2 construct: range 319-541

[3] = biological target: T3, RBD Gamma (K417T/E484K/N501Y) (SARS-CoV-2, UniProt P0DTC2 319-541); assay: SPR, antigen on CM5 sensor
T3 construct: domain: RBD

RBD Delta (L452R/T478K) [4] = biological target: T1, RBD Delta (L452R/T478K); assay: SPR kinetics; *** did not dissociate until 36000sec
[5] = biological target: T2, RBD Omicron (G339D, S371L, S373P, …); assay: SPR kinetics; * dissociation in 360sec
[6] = biological target: T3, RBD Gamma (K417T/E484K/N501Y); assay: SPR kinetics; * dissociation in 360sec
[7] = biological target: T3, RBD Gamma (K417T/E484K/N501Y); assay: SPR kinetics; ** dissociation in 36000sec
RBD Delta (L452R/T478K) [8] = biological target: T1, RBD Delta (L452R/T478K); assay: SPR, antigen on CM5 sensor; remark: listed apart in the source
[9] = biological target: T2, RBD Omicron (G339D, S371L, S373P, …); assay: SPR, antigen on CM5 sensor; remark: listed apart in the source
[10] = biological target: T3, RBD Gamma (K417T/E484K/N501Y); assay: SPR, antigen on CM5 sensor; remark: listed apart in the source
RBD Delta (L452R/T478K) [11] = biological target: T1, RBD Delta (L452R/T478K); assay: SPR kinetics; *** did not dissociate until 36000sec; remark: listed apart in the source
[12] = biological target: T2, RBD Omicron (G339D, S371L, S373P, …); assay: as above
RBD Delta (L452R/T478K) [13] = biological target: T1, RBD Delta (L452R/T478K); assay: SPR, antigen on CM5 sensor; remark: listed apart in the source
[14] = biological target: T2, RBD Omicron (G339D, S371L, S373P, …); assay: SPR, antigen on CM5 sensor; remark: listed apart in the source
[15] = biological target: T3, RBD Gamma (K417T/E484K/N501Y); assay: SPR, antigen on CM5 sensor; remark: listed apart in the source
RBD Delta (L452R/T478K) [16] = biological target: T1, RBD Delta (L452R/T478K); assay: SPR kinetics; *** did not dissociate until 36000sec; remark: listed apart in the source
[17] = biological target: T2, RBD Omicron (G339D, S371L, S373P, …); assay: as above; remark: listed apart in the source
[18] = biological target: T3, RBD Gamma (K417T/E484K/N501Y); assay: as above
RBD Delta (L452R/T478K) [19] = biological target: T1, RBD Delta (L452R/T478K); assay: SPR, antigen on CM5 sensor; remark: listed apart in the source
RBD Delta (L452R/T478K) [20] = biological target: T1, RBD Delta (L452R/T478K); assay: SPR kinetics; * dissociation in 360sec
RBD Delta (L452R/T478K) [21] = biological target: T1, RBD Delta (L452R/T478K); assay: SPR kinetics; *** did not dissociate until 36000sec; remark: listed apart in the source
[22] = biological target: T3, RBD Gamma (K417T/E484K/N501Y); assay: as above; remark: listed apart in the source
RBD Delta (L452R/T478K) [23] = biological target: T1, RBD Delta (L452R/T478K); assay: SPR, antigen on CM5 sensor; remark: listed apart in the source
[24] = biological target: T2, RBD Omicron (G339D, S371L, S373P, …); assay: SPR, antigen on CM5 sensor; remark: listed apart in the source
[25] = biological target: T3, RBD Gamma (K417T/E484K/N501Y); assay: SPR, antigen on CM5 sensor; remark: listed apart in the source
[26] = biological target: T2, RBD Omicron (G339D, S371L, S373P, …); assay: SPR kinetics; * dissociation in 360sec; remark: listed apart in the source
RBD Delta (L452R/T478K) [27] = biological target: T1, RBD Delta (L452R/T478K); assay: SPR kinetics; * dissociation in 360sec; remark: listed apart in the source
[28] = biological target: T2, RBD Omicron (G339D, S371L, S373P, …); assay: SPR kinetics; * dissociation in 360sec; remark: listed apart in the source
[29] = biological target: T3, RBD Gamma (K417T/E484K/N501Y); assay: SPR kinetics; * dissociation in 360sec; remark: listed apart in the source
RBD Delta (L452R/T478K) [30] = biological target: T1, RBD Delta (L452R/T478K); assay: SPR, antigen on CM5 sensor; remark: listed apart in the source
[31] = biological target: T2, RBD Omicron (G339D, S371L, S373P, …); assay: SPR, antigen on CM5 sensor; remark: listed apart in the source
[32] = biological target: T3, RBD Gamma (K417T/E484K/N501Y); assay: SPR, antigen on CM5 sensor; remark: listed apart in the source

B1: Monoclonal antibody S.9.1.H5 (antibody, V domains shown)
VH: QVQLVESGGGVVQPGRSLRLSCAASGFTFSRYGMHWVRQAPGKGLEWVALISYDGTNKYYADSVKGRFTISRDNSKSTQYLQMNSLRAEDTAVYFCAKESFGYASGSYYFDYWGQGTLVTVSS
VL: DIQMTQSPSSLSASVGDRITITCQASQDISNYLNWYQQKPGKAPKLMIYDASNLETGVPSRFSGSGAGTDFTFTISSLQPEDFARYYCQQYGNLPLTFGGGTKVEIK
notes: also called mAb S.9.1.H5
Work on B1 yielded an RU (RBD Delta (L452R/T478K) [1]) of 942 RU, an RU [2] of 175 RU and an RU [3] of 376 RU. For the same binder, the Kd (RBD Delta (L452R/T478K) [4]) was about 197 pM, the Kd [5] was 1830 pM and the Kd [6] was 1110 pM.

B2: Monoclonal antibody S.9.4.A9 (antibody, V domains shown)
VH: QVQLVQSGAEVKKPGASVKVSCKASGYTFISYGISWVRQAPGQELEWMGWISAYNGNTNYAQKLQGRVTMTRDTSTTTAYMELRSLRSDDTAVYYCARVLGGLWFGEPKARHSDYWGQGTLVTVSS
VL: IQMTQSPSSLSASVGDRVTITCRASQGINNYLAWFQQKPGKAPKSLIYAASSLHSGVPSRFSGSGSGTDFTLTISSLQPEDFATYYCQQYNTYPITFGQGTRLEIK
notes: also called mAb S.9.4.A9
Binder B2 has a Kd [7] of 254 pM, an RU (RBD Delta (L452R/T478K) [8]) of 4 RU and an RU [9] of 1 RU. It also gave an RU [10] of 3 RU, a Kd (RBD Delta (L452R/T478K) [11]) of about 31.6 pM and a Kd [12] of about 79600 pM.

B3: Monoclonal antibody S.9.2.B8 (antibody, V domains shown)
VH: EVQLVETGGGLIQPGGSLRLSCAASGLIVSSNYMTWVRQAPGKGLEWVSVLYSGGTTYYADSVKGRVTISRDNSKNTLYLQVNSLTVADTAVYYCARDLADRGGMDVWGQGTTVTVSS
VL: SYELTQPPSVSVAPGQTARITCGGNNIGSQSVHWYQQKPGQAPVLVVYDDSDRPSGIPERFSGSKSGNMATLTISRVEAGDEADYYCQVWDSSSDHVVFGGGTKLTVL
notes: also called mAb S.9.2.B8
Binder B3 has an RU (RBD Delta (L452R/T478K) [13]) of 163 RU, an RU [14] of 22 RU and an RU [15] of 74 RU. For the same binder, the Kd (RBD Delta (L452R/T478K) [16]) was about 0.836 pM, the Kd [17] was about 1770 pM and the Kd [18] was about 1170 pM.

B4: Monoclonal antibody S.11.1.H1 (antibody, V domains shown)
VH: QVQLVESGGGVVQPGRSLTLSCSASGFPFSTYVMHWVRQAPGKGLEWVAVISSDGSNENYADSVKGRFTVSRDNFGSTLFLQMSTLRPDDTAVYYCARTAGRGYADRGRLDTWGQGTLVTVSS
VL: not shown
notes: also called mAb S.11.1.H1
B4 gave an RU (RBD Delta (L452R/T478K) [19]) of 913 RU and a Kd (RBD Delta (L452R/T478K) [20]) of 548 pM.

B5: Monoclonal antibody S.9.1.C9 (antibody, V domains shown)
VH: QVQLVESGGGVVQPGRSLGLSCAVSGFTFSNYGMDWVRQAPGKGLEWVAVTSYDGSNKYYADSVKGRFTISRDNSKNTLYLQMNSLRTEDTAVYYCAKHGGGPYCGGGTCYLAYFDYWGQGTLVTVSS
VL: DIQMTQSPSSLSASVRDRVTITCQASQDISKFLNWYQQKPGKAPKLLIYDASNLETGVPSRFSGSGSGTDFTFTISSLQPEDIATYYCQQYDNLPITFGQGTRLEIKR
notes: also called mAb S.9.1.C9
Work on B5 yielded a Kd (RBD Delta (L452R/T478K) [21]) of about 455 pM, a Kd [22] of about 362 pM and an RU (RBD Delta (L452R/T478K) [23]) of 636 RU. The RU [24] was 137 RU, the RU [25] was 294 RU and the Kd [26] was 241 pM.

B6: Monoclonal antibody S.11.1.F4 (antibody, V domains shown)
VH: QVQLVQSGAEVKKPGSSVRVSCKASAGTFSSYAIRWVRQAPGQGLEWMGTIIPIFGTTNYAQKFQGRVSITADESTNTAYMELSSLRSEDTAVYYCARDLETSPLYGLDVWGQGTTVTVSS
VL: DIQMTQSPSSLSASVGDRVTITCRASQTISRYLNWYQQKPGKPPKLLIFAASTLHSGVPSRFSGSGSGTEFTLTITSLHPDDFSTYYCQQTYSSPHTFGQGTKLEIK
notes: also called S.11.1.F4 mAb
For B6, the Kd (RBD Delta (L452R/T478K) [27]) was 1890 pM, the Kd [28] was 584 pM and the Kd [29] was 1210 pM. It also gave an RU (RBD Delta (L452R/T478K) [30]) of 743 RU, an RU [31] of 153 RU and an RU [32] of 218 RU.

Reference: patent EP4545559A2 (INSTITUTO BUTANTAN, dated 2025)
